Data reported in the Human Domainome abundance scans (Beltran et al. 2025).
± gives the uncertainty stated by the source.

B1: POU domain, class 2, transcription factor 3, residues 186 to 260; numbered along this chain, Q9UKI9 (parent)
chain: SDLEELEKFAKTFKQRRIKLGFTQGDVGLAMGKLYGNDFSQTTISRFEALNLSFKNMCKLKPLLEKWLNDAESSP

Variants of: B1
Assay: abundance fitness (aPCA) (normalised: wild type 0, dead -1); higher = more abundant; growth selection in yeast, the domain comes from the species named
Settings: Homo sapiens

| Variant | abundance fitness |
| --- | --- |
| SDLEELEKFAKTFKQRRIKLGFTQGDVGLAMGKLYGNDFSQTTISRFEALNLSFKNGCKLKPLLEKWLNDAESSP [M57G] | -0.172 ± 0.032 |
| SDLEELEKFAKTFKQRRIKLGFTQGDVGLAMGKLYGNDFSQTTISRFEALNLSFKNACKLKPLLEKWLNDAESSP [M57A] | -0.024 ± 0.036 |
| SDLEELEKFAKTFKQRRIKLGFTQGDVGLAMGKLYGNDFSQTTISRFEALNLSFKNCCKLKPLLEKWLNDAESSP [M57C] | -0.166 ± 0.058 |
| SDLEELEKFAKTFKQRRIKLGFTQGDVGLAMGKLYGNDFSQTTISRFEALNLSFKNFCKLKPLLEKWLNDAESSP [M57F] | -0.222 ± 0.14 |
| SDLEELEKFAKTFKQRRIKLGFTQGDVGLAMGKLYGNDFSQTTISRFEALNLSFKNDCKLKPLLEKWLNDAESSP [M57D] | -0.451 ± 0.11 |
| SDLEELEKFAKTFKQRRIKLGFTQGDVGLAMGKLYGNDFSQTTISRFEALNLSFKNHCKLKPLLEKWLNDAESSP [M57H] | -0.811 ± 0.29 |
| SDLEELEKFAKTFKQRRIKLGFTQGDVGLAMGKLYGNDFSQTTISRFEALNLSFKNKCKLKPLLEKWLNDAESSP [M57K] | -0.396 ± 0.064 |
| SDLEELEKFAKTFKQRRIKLGFTQGDVGLAMGKLYGNDFSQTTISRFEALNLSFKNICKLKPLLEKWLNDAESSP [M57I] | -0.305 ± 0.097 |
| SDLEELEKFAKTFKQRRIKLGFTQGDVGLAMGKLYGNDFSQTTISRFEALNLSFKNECKLKPLLEKWLNDAESSP [M57E] | -0.814 ± 0.09 |
| SDLEELEKFAKTFKQRRIKLGFTQGDVGLAMGKLYGNDFSQTTISRFEALNLSFKWMCKLKPLLEKWLNDAESSP [N56W] | 0.014 ± 0.038 |
| SDLEELEKFAKTFKQRRIKLGFTQGDVGLAMGKLYGNDFSQTTISRFEALNLSFKTMCKLKPLLEKWLNDAESSP [N56T] | 0.093 ± 0.048 |
| SDLEELEKFAKTFKQRRIKLGFTQGDVGLAMGKLYGNDFSQTTISRFEALNLSFKVMCKLKPLLEKWLNDAESSP [N56V] | -0.082 ± 0.033 |
| SDLEELEKFAKTFKQRRIKLGFTQGDVGLAMGKLYGNDFSQTTISRFEALNLSFKMMCKLKPLLEKWLNDAESSP [N56M] | 0.045 ± 0.047 |
| SDLEELEKFAKTFKQRRIKLGFTQGDVGLAMGKLYGNDFSQTTISRFEALNLSFKCMCKLKPLLEKWLNDAESSP [N56C] | -0.016 ± 0.057 |
| SDLEELEKFAKTFKQRRIKLGFTQGDVGLAMGKLYGNDFSQTTISRFEALNLSFKKMCKLKPLLEKWLNDAESSP [N56K] | -0.024 ± 0.045 |
| SDLEELEKFAKTFKQRRIKLGFTQGDVGLAMGKLYGNDFSQTTISRFEALNLSFKRMCKLKPLLEKWLNDAESSP [N56R] | 0.009 ± 0.028 |
| SDLEELEKFAKTFKQRRIKLGFTQGDVGLAMGKLYGNDFSQTTISRFEALNLSFKAMCKLKPLLEKWLNDAESSP [N56A] | 0.018 ± 0.035 |
| SDLEELEKFAKTFKQRRIKLGFTQGDVGLAMGKLYGNDFSQTTISRFEALNLSFKFMCKLKPLLEKWLNDAESSP [N56F] | -0.058 ± 0.065 |

| Variant | abundance fitness |
| --- | --- |
| SDLEELEKFAKTFKQRRIKLGFTQGDVGLAMGKLYGNDFSQTTISRFEALNLSFKDMCKLKPLLEKWLNDAESSP [N56D] | 0.008 ± 0.051 |
| SDLEELEKFAKTFKQRRIKLGFTQGDVGLAMGKLYGNDFSQTTISRFEALNLSFKSMCKLKPLLEKWLNDAESSP [N56S] | -0.035 ± 0.036 |
| SDLEELEKFAKTFKQRRIKLGFTQGDVGLAMGKLYGNDFSQTTISRFEALNLSFKEMCKLKPLLEKWLNDAESSP [N56E] | -0.001 ± 0.039 |
| SDLEELEKFAKTFKQRRIKLGFTQGDVGLAMGKLYGNDFSQTTISRFEALNLSFKYMCKLKPLLEKWLNDAESSP [N56Y] | -0.022 ± 0.052 |
| SDLEELEKFAKTFKQRRIKLGFTQGDVGLAMGKLYGNDFSQTTISRFEALNLSFKGMCKLKPLLEKWLNDAESSP [N56G] | -0.05 ± 0.029 |
| SDLEELEKFAKTFKQRRIKLGFTQGDVGLAMGKLYGNDFSQTTISRFEALNLSFKPMCKLKPLLEKWLNDAESSP [N56P] | -0.206 ± 0.054 |
| SDLEELEKFAKTFKQRRIKLGFTQGDVGLAMGKLYGNDFSQTTISRFEALNLSFKIMCKLKPLLEKWLNDAESSP [N56I] | -0.034 ± 0.082 |
| SDLEELEKFAKTFKQRRIKLGFTQGDVGLAMGKLYGNDFSQTTISRFEALNLSFKQMCKLKPLLEKWLNDAESSP [N56Q] | 0.046 ± 0.059 |
| SDLEELEKFAKTFKQRRIKLGFTQGDVGLAMGKLYGNDFSQTTISRFEALNLSFKLMCKLKPLLEKWLNDAESSP [N56L] | -0.008 ± 0.033 |
| SDLEELEKFAKTFKQRRIKLGFTQGDVGLAMGKLYGNDFSQTTISRFEALNLSFKHMCKLKPLLEKWLNDAESSP [N56H] | 0.014 ± 0.057 |
| SDLEELEKFAKTFKQRRIKLGFTQGDVGLAMGKLYGNDFSQTTISRFEALNLNFKNMCKLKPLLEKWLNDAESSP [S53N] | 0.03 ± 0.062 |
| SDLEELEKFAKTFKQRRIKLGFTQGDVGLAMGKLYGNDFSQTTISRFEALNLTFKNMCKLKPLLEKWLNDAESSP [S53T] | 0.002 ± 0.048 |
| SDLEELEKFAKTFKQRRIKLGFTQGDVGLAMGKLYGNDFSQTTISRFEALNLPFKNMCKLKPLLEKWLNDAESSP [S53P] | -0.032 ± 0.052 |
| SDLEELEKFAKTFKQRRIKLGFTQGDVGLAMGKLYGNDFSQTTISRFEALNLMFKNMCKLKPLLEKWLNDAESSP [S53M] | -0.608 ± 0.081 |
| SDLEELEKFAKTFKQRRIKLGFTQGDVGLAMGKLYGNDFSQTTISRFEALNLWFKNMCKLKPLLEKWLNDAESSP [S53W] | -0.958 ± 0.099 |
| SDLEELEKFAKTFKQRRIKLGFTQGDVGLAMGKLYGNDFSQTTISRFEALNLQFKNMCKLKPLLEKWLNDAESSP [S53Q] | -0.077 ± 0.055 |
| SDLEELEKFAKTFKQRRIKLGFTQGDVGLAMGKLYGNDFSQTTISRFEALNLRFKNMCKLKPLLEKWLNDAESSP [S53R] | -0.093 ± 0.031 |
| SDLEELEKFAKTFKQRRIKLGFTQGDVGLAMGKLYGNDFSQTTISRFEALNLVFKNMCKLKPLLEKWLNDAESSP [S53V] | -0.598 ± 0.043 |
